From the nanobody polyreactivity screen of Harvey et al. (2022)

Assay: yeast display, Sf9 membrane polyspecificity reagent, FACS + sequencing; frameworks hold sequencing errors
How it was run: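 Galactose induction of a Saccharomyces cerevisiae BJ5465 synthetic nanobody display library ran 36–48 hours. The cells were then stained for 1 hour at 4 °C with 10% biotinylated, detergent-solubilized Sf9 membrane reagent, pulled down on streptavidin microbeads and FACS-sorted into low and high (top ~1%) gates on expression and reagent-binding fluorescence. Labels for polyreactivity follow the gate of origin.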

Sequence	polyreactivity (PSR sort gate)
QVQLVESGGGLVQAGGSLRLSCAASGSIFRSNTMGWYRQAPGKERELVAGISYSGGSTYADSVKGRFTISRDNAKNTVYLQMNSLKPEDTAVYYCNTVYDPHTGQSDSWGQATQVTVSS	low polyreactivity
QVQLVESGGGLVQAGGSLRLSCAASGRTFLVNAMGWYRQAPGKEREFVAAITSRSSGSTYYADSVTGRFTISRDKAKNTVYFQLNSQKPEDTAVYYCAARGHLRYESDYWGQGTQVTVSS	high polyreactivity
QVQLVESGGGLVQAGGSLRLSCAASGITFQGNAMGWYRQAPGKERELVAAISSGGNTHYADSVKGRFTISRDNAKNTVYLQMNSLKPEDTAVYYCAASYYYTYYWGQGTQVTVSS	low polyreactivity
QVQLVESGGGLVQAGGSLRLSSAASGFTFYYNAMGWYRQAPGKERELVAAITRTGSTNYADSVKGRFTISRDNAKNTVYLQMNSLKPEDTAVYYCAKTYRRTNWGTYDYWGQGTQVTVSS	high polyreactivity
QVQLVESAGGLVQAGGSLRLSCAASGSIFERNVIGWYRRAPGKERELVPRISTSGGSTTYYADSVKGRFTISRDTAKNTVYLQMNSLKPEDTAVYYCAAGRGYWWWYGYDYWGQGTQVTVSS	low polyreactivity
LQLVESGGGLVQAGGSLRLTSAASGSTFHRYAMGWYRQSPGKERELVAAISSRGGSTYYADSVKGRFTISRDNAKYTVYLQMNSLKPEDTAVYYCAVYGGRSGVPFDSMDYWGQGTQVTVTS	high polyreactivity
QVQLVESGGGLVQAGGSLRLSCAASGRTFGGNAMGWYRQAPGKERELVAAISRSGGRTYYADSVKGRFTISRDNAKNTVYLQMNSLKPEDTAVYYCAAKYQYTQYDYWGQGTQVTVSS	high polyreactivity
QVQLVESGGGLVQAGGSLRLSCAASGFIFYQYAMGWYRQAPGKERELVAAITSRGGRTYYADSVKGRFTISRDNAKNTVYLQMNSLKPEDTAVYYCAVRKASDYYYWGQGTQVTVSS	high polyreactivity
QVQLLESGGGLVQAGGSLRLSCAASGRTFYGYTMGWYRQAPGKEWELVAAISTGGGSTYYADSVKGRFTISRDTAKNTVYLQMNSMKREDTAVYYCAARGGSYSFRRYNFWGQGTQVTVSS	high polyreactivity
QVQLVESGGGLVQAGGSLRLSCAASGFIFYHYVLGWYRQAPGKERELVAAITRGGSTYADSVKGRFTISRDNAKNTVYLQMNSLKPEDTAVYYCNADYPFSYFTRLMDYWGQGTQVTVSS	low polyreactivity
QVQLVESGGGLVQAGGSLRLSCAASGRTFYLYAMGWYIQAPGKERELVAGISRSGGSTYYADSVKGRFTISRDNAKNTVYLQMNSLKPEDTAVYYCAAGYYYWGQGTQVTVSS	high polyreactivity
QVQLVESGGGLVQAGGSLRLSCAASGSTLRAYAMGWYRQAPGKERELVAAITRRGGSTSYADSVKGRFTISRDNAKNTVYLQMNSLKPEDTAVYYCARVVVTRHPKSIEYDYWGQGTQVTVSS	high polyreactivity
QVQLVESGGGLVQAGGSLRLSCSASGLIFYDYDMGWYRQAPGKERELVAAISNDASTYYADSVKGRFTISRDNGKNTVYFQMNSLKPEDTAVYYCAAEPYVFGLSSKPFWYNYWGQGTQVTVSS	low polyreactivity
QVQLVESGGGLVQAGGSLRLSCAASGSTLYVYAMGWYRQAPGKEREFVADISWSGGSTYYADSVKGRFTISRDNAKNTVYLQMNILKPEDTAVYYCNADFTDSYWSRYDYWGQGTQVTVSS	low polyreactivity
QVQLVESGGGLVQAGGSLRLSCAASGNTLLSYAMGWYRQAPGKEWELVAAISIDGSTIYADSVKGRFTISRDNAKNTVYLQMNSLKPEDTAVYYCNADRTPFAEMDYWGQGTQVTVSS	low polyreactivity
QVQLVESGGGLVQAGGSLRLSCAASGITFWHNTMGWYRQAPGKERELVAAISWTGGRTYYADSVKGRFTISRDNAKNTVYLQMNSLKPEDTAVYYCAADFSWTPSGNYDSWGQGTQVTVSS	low polyreactivity
QVQLVESGGGLVQAGGSLRLSCAASGSTFTGNAMGWYRQAPGKEREFVAAITYSGTRTNYADSVKGRFTISRDNAKNTVYLQMNSLKPEDTAVYYCAARFPWRRRYYYWGQGTQVTVSS	high polyreactivity
